Target: Microtubules polymerized from purified porcine brain tubulin (porcine) (UniProt P02550)
Assay: co-sedimentation

Kd: 670 nM
Substance: GST-TAOK2-C (1,187–1,235) (from UniProt Q9UL54 1187-1235) (domain or fragment)

Source: publication PMC8699727
